Source: patent US20070128190A1 (GLENMARK PHARMACEUTICALS S A, published 2007)

Biological target: T1, GST-cynomolgus α2 I domain fusion protein of Example 18 (sequence identical to the human I domain) (cynomolgus monkey, UniProt P17301 153-368 (human entry))
T1 construct: also called GST-cynomolgous-α2 I domain fusion protein; not shown: glutathione S-transferase tag, vector not restated
T1 sequence: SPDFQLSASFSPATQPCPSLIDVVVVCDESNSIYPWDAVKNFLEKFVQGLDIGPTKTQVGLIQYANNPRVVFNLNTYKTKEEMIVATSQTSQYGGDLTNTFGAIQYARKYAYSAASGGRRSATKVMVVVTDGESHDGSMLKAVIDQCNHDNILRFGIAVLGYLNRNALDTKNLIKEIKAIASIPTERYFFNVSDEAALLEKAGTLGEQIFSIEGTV
Test: SPR (Biacore 2000), antibody captured, GST-α2 I domain in solution

Kd: 5 nM | koff: 0.003 s⁻¹ | kon: 500000 M⁻¹ s⁻¹
B1: Humanized TMC-2206 (hIgG4/κ VH12.0/VL10.0Q) (antibody)
heavy: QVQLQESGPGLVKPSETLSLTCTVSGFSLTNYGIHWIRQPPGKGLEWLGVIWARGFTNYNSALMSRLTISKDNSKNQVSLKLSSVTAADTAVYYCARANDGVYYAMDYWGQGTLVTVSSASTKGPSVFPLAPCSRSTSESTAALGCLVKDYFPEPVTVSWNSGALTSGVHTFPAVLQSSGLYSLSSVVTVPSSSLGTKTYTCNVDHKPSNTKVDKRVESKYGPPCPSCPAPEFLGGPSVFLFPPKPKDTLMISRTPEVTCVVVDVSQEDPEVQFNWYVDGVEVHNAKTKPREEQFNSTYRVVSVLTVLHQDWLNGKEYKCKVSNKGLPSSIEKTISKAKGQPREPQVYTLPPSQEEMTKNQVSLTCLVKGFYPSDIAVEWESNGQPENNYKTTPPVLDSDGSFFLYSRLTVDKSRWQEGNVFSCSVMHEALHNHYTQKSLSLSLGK
light: DFVMTQSPAFLSVTPGEKVTITCSAQSSVNYIHWYQQKPDQAPKKLIYDTSKLASGVPSRFSGSGSGTDYTFTISSLEAEDAATYYCQQWTTNPLTFGQGTKVEIKRTVAAPSVFIFPPSDEQLKSGTASVVCLLNNFYPREAKVQWKVDNALQSGNSQESVTEQDSKDSTYSLSSTLTLSKADYEKHKVYACEVTHQGLSSPVTKSFNRGEC
notes: labelled with Eu or Alexa-488 in some assays
